Assay [1] has as its target recombinant HLA-A*01:01 (heavy chain with human β2-microglobulin light chain) (human).
The target in assay [2] is recombinant HLA-B*15:01 (heavy chain with human β2-microglobulin light chain) (human).

Regarding AQDIYRASYY [ALK R1275Q-derived decamer neoepitope (…)], the thermal stability (Tm) of the purified p/MHC complex, differential scanning fluorimetry in assay [1] came to 47.9 °C. The melting temperature (Tm) of the purified p/MHC complex, differential scanning fluorimetry in assay [2] stood at 59.3 °C.
In the case of AQDIYRASY [ALK R1275Q-derived nonamer neoepitope (…)], the thermal stability (Tm) of the purified p/MHC complex, differential scanning fluorimetry in assay [1] stood at 46.7 °C. In addition, the melting temperature (Tm) of the purified p/MHC complex, differential scanning fluorimetry in assay [2] stood at 53.4 °C.

The values above are taken from article PMC5797543.
